Test results: the supplement of paper PMC10567573

B1: CLINT1 (parent)
chain: VVTSAREHIYDLRSLENYHFVDEH

Variants of: B1
Experiment: protein stability index of a GFP-peptide fusion (GPS, HEK-293T) (PSI 1-6); higher = more stable
Conditions: c terminus: a fixed tail appended
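Further: lentivirally expressed fusions sorted by FACS into six bins by GFP to DsRed ratio, PSI derived from sequencing read proportions per bin multiplied by bin number.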

Protein stability index: each site, then its substitutions
I9: N 4.5 | S 4.07 | T 3.31 | E 3.62 | Q 4.09 | W 2.21 | P 3.59 | Y 2.15 | A 2.98 | V 3.16 | D 3.54 | R 3.66 | F 2.61 | K 3.48 | G 3.83 | H 3.24 | M 3.06 | C 2.83 | L 2.83
S14: W 2.2 | L 2.72 | I 2.15 | F 2.57 | M 2.49 | A 3.52 | V 2.11 | C 2.24 | E 2.87 | N 3.07 | T 2.63 | D 3.24 | Y 2.02 | G 3.45 | R 2.44 | H 2.25 | Q 2.31 | P 2.24 | K 2.69
N17: W 1.96 | L 2.09 | H 2.45 | P 3.32 | R 2.95 | Y 1.97 | F 1.86 | D 3.52 | V 2.14 | G 2.81 | E 2.96 | C 2.35 | T 2.67 | Q 2.15 | K 2.63 | M 2.35 | A 2.95 | S 2.18 | I 1.83
D11: Y 2.02 | H 2.3 | T 2.17 | K 2.13 | M 2.62 | S 2.64 | P 2.56 | L 2.44 | A 2.79 | W 2.13 | V 2.89 | Q 2.54 | F 1.25 | N 2.63 | I 2.83 | E 2.38 | G 2.61 | C 2.4 | R 2.62
R13: Q 3.06 | F 1.73 | G 2.7 | C 2.38 | Y 1.95 | K 3.45 | P 3.58 | H 2.67 | L 1.97 | V 2.86 | T 3.35 | M 2.9 | N 3.35 | I 2.49 | E 3.73 | W 2.08 | S 3.18 | A 3.55 | D 3.59
H19: S 3.21 | V 2.11 | K 4.3 | N 3.09 | R 3.52 | F 2.26 | W 1.6 | D 3.99 | P 3 | M 2.4 | G 3.16 | E 3.8 | T 3.28 | L 2.68 | I 2.41 | A 2.03 | Y 2.55 | Q 3.12 | C 2.33
Y10: I 2.32 | M 3.01 | A 3.84 | R 3.78 | S 3.37 | H 2.9 | L 2.71 | T 3.8 | V 2.67 | C 3.66 | F 2.42 | G 3.91 | N 3.71 | E 4.17 | W 2.06 | P 4.21 | D 3.94 | K 3.64 | Q 3.75
H8: T 2.91 | K 2.45 | E 2.99 | W 2.12 | F 1.9 | D 3.48 | G 3.13 | Y 1.89 | C 2.1 | L 2.29 | S 3.31 | P 3.21 | N 2.83 | A 2.52 | Q 3.16 | I 2.65 | R 2.61 | M 2.33 | V 2.22
F20: N 3.77 | I 3.43 | D 4.77 | K 3.33 | L 4.22 | V 3.71 | S 3.79 | T 2.99 | W 2.58 | H 3.57 | Y 3.24 | R 3.24 | G 3.54 | Q 3.73 | M 3.26 | C 3.46 | P 3.96 | E 3.97 | A 4.11
D22: C 1.98 | A 2.1 | Y 1.5 | R 2.38 | Q 2.59 | I 1.09 | N 2.35 | S 2.31 | T 1.75 | E 2.42 | P 2.58 | K 2.49 | V 2.3 | H 2.93 | G 2.85 | F 2.2 | L 1.57 | W 3.21 | M 1.66
R6: G 3.04 | W 3.17 | P 3.08 | K 3.48 | H 3.07 | V 2.31 | T 2.75 | S 3.93 | N 3.14 | Y 2.35 | I 1.84 | M 2.33 | Q 3.4 | L 1.75
Y18: Q 3.87 | E 4.26 | H 3.59 | N 4.48 | C 3.3 | R 3.72 | F 2.5 | V 3.24 | M 2.88 | A 3.65 | L 2.94 | G 3.78 | S 4.05 | I 3 | K 3.6 | D 4.14 | P 3.71 | T 3.94 | W 2.94
E16: N 2.62 | S 2.67 | H 2.26 | M 3.01 | W 1.83 | D 2.77 | L 2.47 | V 2.36 | C 1.93 | Y 1.56 | Q 2.38 | F 2.13 | G 2.11 | R 2.43 | P 3.32 | K 2.59 | A 2.19 | I 2.12 | T 2.46
L12: K 3.78 | F 2.61 | S 3.13 | M 3.39 | G 3.78 | E 4.03 | W 2.7 | Y 2.4 | N 3.78 | P 3.21 | A 3.42 | T 3.99 | H 3.32 | C 2.61 | R 3.6 | D 4.08 | V 2.7 | I 2.89 | Q 4.09
E7: N 2.64 | Q 1.85 | M 1.39 | H 2.17 | S 2.4 | V 2.26 | C 1.86 | W 2.44 | L 2.3 | R 2.07 | D 2.29 | A 2.41 | P 2.44 | K 2.77 | G 1.73 | Y 2.57 | F 1.9 | T 2.73
E23: T 2.2 | S 2.36 | N 1.96 | R 1.72 | L 1.93 | I 2.54 | P 1.96 | D 2.86 | K 2.33 | G 3.21 | V 2.07 | F 2.51 | A 2.64 | Q 2.55 | H 2.21 | M 1.9 | C 1.64
V21: D 3.74 | C 2.78 | G 3.49 | W 2.54 | P 3.38 | S 2.96 | F 2.48 | M 2.54 | N 3.44 | H 2.98 | R 2.54 | Q 3.25 | Y 2.47 | T 2.84 | L 2.82 | K 2.53 | E 3.79 | A 3.44 | I 2.52
L15: W 2.56 | I 2.99 | C 3.05 | D 3.8 | M 2.62 | S 2.95 | H 3.58 | V 3.04 | K 3.36 | Y 2.91 | F 2.4 | E 3.46 | T 3.2 | Q 3.66 | G 3.56 | P 3.31 | N 3.1 | R 3.53 | A 3.32
